“Also recorded” adds a separate entry of the source.
What was measured:
[1] = test system: mouse bone marrow cells; assay: Ability of FSTL1-induced MSCs to differentiate into adipocytes (Examples 14, 16); type: cell-based; details: Example 16; antibody 20.0-2.5 μg/ml; FIG. 104B
Experimental: The antibody clone (#6-55, #7, #10, #13, or #22) was evaluated for its activity by the same testing method as in Example 13. #6-55 was set as a positive control for activity. […] Mouse bone marrow cells were supplemented with FSTL1 and the predetermined concentration of each antibody and cultured for 8 days. 5×10^4 cells/well were separated from each culture system and evaluated for the ability to differentiate into adipocytes using an adipocyte differentiation reagent included in “Mesenchymal Stem Cell Functional Identification Kit (R&D Systems, Inc., Cat. No. SC010)”. For the evaluation method, the cells were supplemented with the adipocyte differentiation reagent and cultured for 8 days. Then, adipocytes per culture system were counted under a microscope for evaluation. […]
In the same way as in Example 15, mouse bone marrow cells were supplemented with FSTL1 and the predetermined concentration of each antibody and cultured for 8 days. 5×10^4 cells/well were separated from each culture system and evaluated for the ability to differentiate into adipocytes using an adipocyte differentiation reagent included in “Mesenchymal Stem Cell Functional Identification Kit (R&D Systems, Inc., Cat. No. SC010)”. […] Then, adipocytes per culture system were counted under a microscope for evaluation (FIG. 104B). […]

[2] = test system: mouse colorectal cancer CT26 cells; assay: Mouse colorectal cancer CT26 cell-transplanted model (Example 20); type: in vivo
Experimental: (§1) Procedures and methods of the experiment were basically performed under substantially the same conditions as in the bone metastasis model experiments of Examples 17 to 19 except that bone metastasis was not evaluated. Specifically, drug efficacy evaluation was conducted using mouse tumor models other than Snail-positive tumor bone metastasis models. The drug efficacy of the anti-FSTL1 antibody was evaluated using cancer-bearing models of BALB/c mice different in strain from the C57BL/6 mice used in the preceding tests. The test was conducted by changing only the amount of tumor implanted, antibody administration timing, and assay timing. • Day 0: transplantation of tumor cells (5×10^5 cells subcutaneously & 5×10^5 cells intravenously) Days 4 and 7: intraperitoneal administration of the antibody (10 mg/kg) • Day 14: drug efficacy evaluation (subcutaneous tumor growth (FIG. 108A) and lung metastasis (FIG. 108B)) For lung metastasis, the number of metastatic nodules in the lung was macroscopically counted. The tumor volumes of the mice were measured 7, 11, and 14 days after tumor implantation.

[3] = test system: mouse colorectal cancer CT26 cells; assay: In vivo, mouse colorectal cancer CT26 cell-transplanted model (Example 20); details: intraperitoneal 10 mg/kg on days 4 and 7
Experimental: as §1, with “44A)” for “108A)”, “44B))” for “108B)) For lung metastasis, the number of metastatic nodules in the lung was macroscopically counted. The tumor volumes of the mice were measured 7, 11, and 14 days after tumor implantation.”
For lung metastasis, the number of metastatic nodules in the lung was macroscopically counted. The tumor volumes of the mice were measured 7, 11, and 14 days after tumor implantation.
as §1, with “intravenously) •” for “intravenously)”, “76A)” for “108A)”, “76B))” for “108B)) For lung metastasis, the number of metastatic nodules in the lung was macroscopically counted. The tumor volumes of the mice were measured 7, 11, and 14 days after tumor implantation.”

[4] = test system: induction of MSCs having the ability to differentiate into adipocytes; assay: Ability to differentiate into adipocytes (Examples 14, 16); type: cell-based, mouse; details: Example 16, FIG. 10B/40B; antibody 2.5-20.0 μg/ml
Experimental: The antibody clone (#6-55, #7, #10, #13, or […]) was evaluated for its activity by the same testing method as in Example 13. #6-55 was set as a positive control for activity. […] Mouse bone marrow cells were supplemented with FSTL1 and the predetermined concentration of each antibody and cultured for 8 days. 5×10^4 cells/well were separated from each culture system and evaluated for the ability to differentiate into adipocytes using an adipocyte differentiation reagent included in “Mesenchymal Stem Cell Functional Identification Kit (R&D Systems, Inc., Cat. No. SC010)”. For the evaluation method, the cells were supplemented with the adipocyte differentiation reagent and cultured for 8 days. Then, adipocytes per culture system were counted under a microscope for evaluation. […]
In the same way as in Example 15, mouse bone marrow cells were supplemented with FSTL1 and the predetermined concentration of each antibody and cultured for 8 days. 5×10^4 cells/well were separated from each culture system and evaluated for the ability to differentiate into adipocytes using an adipocyte differentiation reagent included in “Mesenchymal Stem Cell Functional Identification Kit (R&D Systems, Inc., Cat. No. SC010)”. […] Then, adipocytes per culture system were counted under a microscope for evaluation (FIG. 10B). […]

B1: #6-55: chicken-mouse chimeric anti-FSTL1 antibody clone; variable regions SEQ ID NO: 783 (light), 785 (heavy) (antibody, V domains shown)
VH: AVTLDESGGGLQTPGGALSLVCKGSGFTFTSVTMQWVRQAPGKGLEWVASVCSGSSTYYAPAVKGRATISRDNGQSTVRLQLSNLRPEDTGTYYCAKIAGRARWSCTSAAYNIDAWGHGTEVIVSS
VL: ASTQPSSVSAIPGETVKITCSGGGNNYGWYQQRSPGSAPVTVIYYNDNRPSNIPSRFSGSTSGSTSTLTITGVQADDEAIYYCGSWDSNTDSGIFGAGTTLTVL
modifications: mouse constant regions
- cells differentiating into adipocytes [1]: decreased in number by the addition of #6-55 in a dose-dependent manner
- growth and lung metastasis of CT26 subcutaneous tumor ([2]; BALB/c mice, intraperitoneal 10 mg/kg on days 4 and 7, day 14, FIG. 108): very strongly suppressed
- number of metastatic nodules in the lung ([2]; day 14, control antibody group 14 nodules on average, FIG. 108B): 0 to 3 nodules
- disappearance of solid tumor (mice) ([2]; n=5, intraperitoneal 10 mg/kg on days 4 and 7): three out of the five mice
- growth of CT26 subcutaneous tumor ([3]; BALB/c mice): very strongly suppressed
- lung metastasis of CT26 tumor ([3]; BALB/c mice, day 14): very strongly suppressed
- mice in which solid tumor disappeared ([3]; n=5): three out of the five mice
- differentiation into adipocytes (induction of MSCs having the ability to differentiate into adipocytes) [4]: inhibited by #6-55 in an antibody dose-dependent manner; also recorded: cells differentiating into adipocytes decreased in number by the addition of #6-55 in a dose-dependent manner

From US20180021429A1, “ANTICANCER AGENTS OR ANTIMETASTATIC AGENTS USING FSTL1 AND COMBINATION DRUG THEREOF” (PHARMA FOODS INTERNATIONAL CO., LTD., priority 2015, published 2018)
